Results on 1 substance are retold here after patent publication US20180002754A1.

Assay [1] concerns the target Frizzled-2 (human Fzd2) (human) (UniProt Q14332). Put plainly: SPR (Biacore) binding analysis, text to Table 1 and FIG. 10. On the technique in general: In SPR one partner is held on a chip, and binding of the other changes the refractive index at the surface.
For assay [2] the target is unchanged. As to the kind of experiment: SPR (BioCore study performed by Precision Antibody), legend of FIG. 10.
For assay [3] the target is unchanged. Put plainly: SPR (Biacore, by Precision Antibody); antibody as ligand, Frizzled-2 as analyte at 0-500 nM.

UniProt Q14332, sequence (Q14332 24-247 limits assumed): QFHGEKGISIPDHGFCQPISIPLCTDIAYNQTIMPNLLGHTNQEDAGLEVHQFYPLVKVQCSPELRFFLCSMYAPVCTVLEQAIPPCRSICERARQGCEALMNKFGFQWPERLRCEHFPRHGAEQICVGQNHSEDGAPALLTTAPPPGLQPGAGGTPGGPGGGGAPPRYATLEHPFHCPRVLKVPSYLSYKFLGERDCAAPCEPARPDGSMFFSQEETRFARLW

Consider “anti-Fzd2 antibody (R & D Systems; MAB1307)”, for which the Kd (as a rule, the constant that tells how readily two partners part at equilibrium) in assay [1] is below 20 nM. This substance also displayed a Kd in assay [2] of 20 nM. Further, in assay [3], the Ka worked out at 5.2e+07 M⁻¹, the Kd was found to be 19 nM, the koff (usually the rate constant with which the complex falls apart) is 0.00074 s⁻¹ and the kon (commonly a measure of how fast the partners come together) came out at 39000 M⁻¹ s⁻¹.
